Test results as given in paper PMC7568657, “SppI Forms a Membrane Protein Complex with SppA and Inhibits Its Protease Activity in Bacillus subtilis” (mSphere, 2020).
“And” between values parts separate entries of the source, which are not always exact repeats. Equal entries are not always repeated.

How the values were obtained:
SppI-SPA (B. subtilis) = SppI-SPA (B. subtilis) (UniProt O34424); assay: affinity purification with mass spectrometry; tandem affinity purification of SppI-SPA (calmodulin resin, then anti-FLAG resin) from B. subtilis membranes in 10 mM Tris-Cl pH 7.5, 150 mM NaCl, 1% DDM, 4°C; LC-MS/MS; two independent experiments
[1] = biological target: the molecule itself; assay: SEC; gel filtration of affinity-purified proteins on Superdex 200 GL 10/300; apparent sizes against MW markers

Row | stoichiometry N (SppA per SppI (by the PAI values)) (SppI-SPA (B. subtilis)) | Molecule | stoichiometry N [1]
1 | 1 and 2 | SppA (from UniProt O34525 1-335) (enzyme) | –
2 | – | SppI-FLAG (natural protein, B. subtilis, UniProt O34424 1-164, looked up, SppI (formerly YteJ), membrane protein of Bacillus subtilis; not shown: FLAG, C-terminal, kept) MDATYEELERNDIKGPQEAELLTHAYAGFWVRFWAFLLDWLVIWGLNHLLVSPLFTVLDLPKTSGMFTFSAYSVTTLIVYLAYFALMTKYFRQTLGKMVFGLKVVSVKQDSKLTWSTVIFREVVGRYIDKIWILYIVVAFSPTKQGIHDYIADTTVVHEKLYRK | 8
3 | – | 6×His-SppI (natural protein, B. subtilis, UniProt O34424 1-164, looked up, SppI (formerly YteJ), membrane protein of Bacillus subtilis, amplified from BSB1 chromosomal DNA; source: E. coli ER2566, purified from the membrane fraction (1% DDM, Ni-NTA, gel filtration); not shown: 6×His, N-terminal, kept) MDATYEELERNDIKGPQEAELLTHAYAGFWVRFWAFLLDWLVIWGLNHLLVSPLFTVLDLPKTSGMFTFSAYSVTTLIVYLAYFALMTKYFRQTLGKMVFGLKVVSVKQDSKLTWSTVIFREVVGRYIDKIWILYIVVAFSPTKQGIHDYIADTTVVHEKLYRK | 8
4 | – | 6×His-SppA (enzyme, B. subtilis, UniProt O34525 1-335, looked up, SppA, membrane protease of Bacillus subtilis, amplified from BSB1 chromosomal DNA; Purified alone it gave at least three bands of 32 to 34 kDa (C-terminal domain partly self-cleaved); purified with SppI the major band was about 36 kDa and still held most of the C terminus; source: E. coli ER2566, purified from the cytoplasmic membrane fraction (1% DDM, Ni-NTA, gel filtration); not shown: 6×His, …) MNAKRWIALVIALGIFGVSIIVSISMSFFESVKGAQTDLTSLTDESQEKTLENGSPSSKIAVLEVSGTIQDNGDSSSLLGADGYNHRTFLKNLERAKDDKTVKGIVLKVNSPGGGVYESAEIHKKLEEIKKETKKPIYVSMGSMAASGGYYISTAADKIFATPETLTGSLGVIMESVNYSKLADKLGISFETIKSGAHKDIMSPSREMTKEEKNIMQSMVDNSYEGFVDVISKGRGMPKAEVKKIADGRVYDGRQAKKLNLVDELGFYDDTITAMKKDHKDLKNASVISYEESFGLGSLFSMGANKMFKSEIDFLNMREILSQSGSPRMMYLYAK | 8
5 | – | 6×His-SppA^K199A (enzyme, B. subtilis, UniProt O34525 1-335, looked up, SppA, membrane protease of Bacillus subtilis, with the active-site mutation K199A; band of about 36 kDa; not shown: 6×His, N-terminal, kept) MNAKRWIALVIALGIFGVSIIVSISMSFFESVKGAQTDLTSLTDESQEKTLENGSPSSKIAVLEVSGTIQDNGDSSSLLGADGYNHRTFLKNLERAKDDKTVKGIVLKVNSPGGGVYESAEIHKKLEEIKKETKKPIYVSMGSMAASGGYYISTAADKIFATPETLTGSLGVIMESVNYSKLADKLGISFETIKSGAHADIMSPSREMTKEEKNIMQSMVDNSYEGFVDVISKGRGMPKAEVKKIADGRVYDGRQAKKLNLVDELGFYDDTITAMKKDHKDLKNASVISYEESFGLGSLFSMGANKMFKSEIDFLNMREILSQSGSPRMMYLYAK | 8
